# According to patent publication US6136558A, “Heregulin variants” (Genentech, Inc., priority 1998, dated 2000):
# Ends that are not written are not given here.
# B1: HRG7 (ligand)
# chain: SHLVKCAEKEKTFCVNGGECFMVKDLSNPSRYLCKCPNEFTGDRCQNYVMAS
# B2: HRG6 (ligand)
# chain: SHLVKCAEKEKTFCVNGGECFMVKDLSNPSRYLCKCPNEFTGDRCQNYVMA
# B3: HRG5 (ligand)
# chain: YVSSESPIRISVSTEGANTSSSTSTSTTGTSHLVKCAEKEKTFCVNGGECFMVKDLSNPSRYLCKCPNEFTGDRCQNYVMASFYKHLGIEFMEAEELY
# B4: HRG11 (ligand)
# chain: SHLVKCAEKEKTFCVNGGECFMVKDLSNPSRYLCKCPNEFTGDRCQNYVMASFYGGGSGGG
# B5: HRG11: HRG-β1 177-230 attached to pIII 247 through GGGSGGG linkage (protein)
# chain: B4 chain
# modifications: also: attached to pIII 247 through GGGSGGG linkage
# notes: HRG-β1 177-230 attached to pIII 247 through GGGSGGG linkage
# B6: HRG4 (ligand)
# chain: YVSSESPIRISVSTEGANTSSSTSTSTTGTSHLVKCAEKEKTFCVNGGECFMVKDLSNPSRYLCKCPNEFTGDRCQNYVMA
# Assays:
# [1] = target: ErbB-4 receptor-Ig fusion (human) (UniProt Q15303); experiment: phage ELISA, ratio to wild-type HRG-β1 177-244 on phage; clone selected on ErbB-4-Ig with ErbB-3-Ig counter-selection
# [2] = target: ErbB-3 receptor-Ig fusion (human) (UniProt P21860); experiment: phage ELISA, ratio to wild-type HRG-β1 177-244 on phage
# [3] = target: ErbB-2/3 receptor-Ig fusion (ErbB-2/3-Ig); experiment: Phage ELISA, competition with soluble ErbB-2/3-Ig; format: binding; settings: EGF-like domain displayed monovalently on phage as pIII fusion; soluble ErbB-2/3-Ig competing half of the phage off the plate; average of duplicate experiments
# Text: To produce phage displaying the domains, mutagenesis reaction mixtures were electrotransformed into XL1-Blue™ cells (Stratagene, Inc., La Jolla, Calif.), according to the manufacturer's protocol. The transformed cells were then infected with 10^11 plaque-forming units (pfu) M13K07 helper phage (Promega Corp., Madison, Wis.). […] The phage were resuspended in phosphate-buffered saline (PBS: 0.01 M sodium phosphate, 0.1 M NaCl, pH 7.5).
# Microtiter plates (Nunc Maxisorp™ 96-well plates, Inter Med, Denmark) for phage ELISA were prepared as follows. The wells were precoated overnight with 0.5 μg of rabbit anti-human IgG (Fc gamma fragment-specific) antibodies (Jackson Immunoresearch, West Grove, Pa.) in 100 μL 50 mM NaCO3 (pH 9.6). The wells were blocked for 30 minutes (min) with 200 μL PBS containing 0.1% bovine serum albumin (BSA) and rinsed with wash buffer (PBS containing 0.05% Tween 20™). The wells were then coated with 0.1 μg ErbB-2/3-Ig in binding buffer (PBS, 0.1% BSA, 0.05% Tween 20™) for 1 h, and washed again.
# Following incubation for 2 h at room temperature, plates were washed extensively and treated with a 1:900 dilution of anti-M13 horseradish peroxidase conjugate (Pharmacia, Piscataway, N.J.) for 20 min. The amount of phage binding was determined by assaying horseradish peroxidase activity using o-phenylenediamine dihydrochloride) substrate solution (Sigma Chemical Company, St. Louis, Mo.).
# [4] = target: ErbB-4 receptor-Ig fusion (human) (UniProt Q15303); experiment: phage ELISA, soluble ErbB-4-Ig as competitor
# [5] = target: ErbB-3 receptor-Ig fusion (human) (UniProt P21860); experiment: phage ELISA, soluble ErbB-3-Ig as competitor
# [6] = target: ErbB-2/3 receptor-Ig fusion (human) (UniProt P04626); experiment: phage ELISA, soluble ErbB-2/3-Ig as competitor
molecule,measurement,setting,value
HRG-β1 177-244 H178L on phage (ligand),EC50 Mut/Wt,[1],1.2
same,EC50 Mut/Wt,[2],1.4
HRG7: HRG-β1 177-228 fused to pIII 247 (SHLVKCAEKEKTFCVNGGECFMVKDLSNPSRYLCKCPNEFTGDRCQNYVMAS; cysteine pairing not given here; also: fused to pIII 247),EC50,[3],42 nM
"HRG-β1 177-244 H178L with Met in place of 228-231, on phage (ligand)",EC50 Mut/Wt,[1],1.7
same,EC50 Mut/Wt,[2],6.4
HRG-β1 177-244 H178E L179V on phage (ligand),EC50 Mut/Wt,[1],1.7
same,EC50 Mut/Wt,[2],0.8
HRG-β1 177-244 H178T L179M on phage (ligand),EC50 Mut/Wt,[1],1.6
same,EC50 Mut/Wt,[2],1.4
HRG-β1 177-244 H178D L179V on phage (ligand),EC50 Mut/Wt,[1],2
same,EC50 Mut/Wt,[2],2.2
HRG-β1 177-244 F189A on phage (ligand),EC50,[4],106 nM
same,EC50,[5],892 nM
HRG-β1 177-244 R220A on phage (ligand),EC50,[4],> 1000 nM
same,EC50,[5],> 1000 nM
HRG6: HRG-β1 177-227 fused to pIII 247 (SHLVKCAEKEKTFCVNGGECFMVKDLSNPSRYLCKCPNEFTGDRCQNYVMA; cysteine pairing not given here; also: fused to pIII 247),EC50,[3],40 nM
HRG-β1 177-244 R207P on phage (ligand),EC50 Mut/Wt,[1],1.3
same,EC50 Mut/Wt,[2],6.1
HRG-β1 177-244 E215A on phage (ligand),EC50,[4],32 nM
same,EC50,[5],51 nM
HRG-β1 177-244 G194A on phage (ligand),EC50,[4],65 nM
same,EC50,[5],500 nM
B1,EC50,[6],42 nM
B2,EC50,[6],40 nM
B3,EC50,[3],4.7 nM
same,EC50,[6],4.7 nM
B4,EC50,[6],19 nM
B5,EC50,[3],19 nM
B6,EC50,[3],38 nM
same,EC50,[6],38 nM
